Measured values published in paper PMC3988887.

Target: MBP-Cnn fusion containing the WT PReM domain (MBP-Cnn-WT) (Drosophila melanogaster)
Assay: SEC-MALS; purified MBP-Cnn fusions; equal volume of protein at 15, 75 or 300 uM loaded onto the column; expected monomer mass 67.4 kDa (by MS)

stoichiometry N: 2
Substance: MBP-Cnn fusion containing the WT PReM domain (MBP-Cnn-WT) (domain or fragment)
